How the values were obtained:
[1] = molecular target: PSD-95 PDZ1-2 6xHis (human); test: ITC
[2] = molecular target: PSD-95 PDZ1 6xHis (human); test: ITC

Kd [1]: 12 µM
Kd [2]: 100 µM
B1: Stargazin_CT (aa 203-323) (domain or fragment)
chain: DRHKQLRATARATDYLQASAITRIPSYRYRYQRRSRSSSRSTEPSHSRDASPVGVKGFNTLPSTEISMYTLSRDPLKAATTPTATYNSDRDNSFLQVHNCIQKDSKDSLHANTANRRTTPV
